These results are taken from paper PMC7939381, “MMP activation–associated aminopeptidase N reveals a bivalent 14-3-3 binding motif” (The Journal of Biological Chemistry, 2020).

The labels stand for the following.
B1: 14-3-3σ ΔC (aa 1–231) (domain or fragment, human, UniProt P31947 1-231, looked up)
chain: MERASLIQKAKLAEQAERYEDMAAFMKGAVEKGEELSCEERNLLSVAYKNVVGGQRAAWRVLSSIEQKSNEEGSEEKGPEVREYREKVETELQGVCDTVLGLLDSHLIKEAGDAESRVFYLKMKGDYYRYLAEVATGDDKKRIIDSARSAYQEAMDISKKEMPPTNPIRLGLALNFSVFHYEIANSPEEAISLAKTTFDEAMADLHTLSEDSYKDSTLIMQLLRDNLTLWT
notes: 14-3-3 sigma (stratifin), human, C-terminally truncated, residues 1-231; One monomer per asymmetric unit; the biological dimer is generated by crystallographic symmetry; also called 14-3-3 ΔC aa 1–231; source: E. coli BL21(DE3), purified (HisTrap, TEV cleavage, reverse HisTrap, SEC); not shown: His6, N-terminal, cleaved
B2: 14-3-3η, full length, N-terminally His6-tagged (natural protein, human, UniProt Q04917 1-246, looked up)
chain: MGDREQLLQRARLAEQAERYDDMASAMKAVTELNEPLSNEDRNLLSVAYKNVVGARRSSWRVISSIEQKTMADGNEKKLEKVKAYREKIEKELETVCNDVLSLLDKFLIKNCNDFQYESKVFYLKMKGDYYRYLAEVASGEKKNSVVEASEAAYKEAFEISKEQMQPTHPIRLGLALNFSVFYYEIQNAPEQACLLAKQAFDDAIAELDTLNEDSYKDSTLIMQLLRDNLTLWTSDQQDEEAGEGN
notes: 14-3-3 eta, human, full length; also called His6-14-3-3η; source: E. coli BL21(DE3), purified (HisTrap, SEC); also in E. coli cell lysate (pulldown); not shown: His6, N-terminal, kept
B5: peptide 1, APN 38–46 pSer43, as used in ITC (peptide)
peptide: NKNAN[pS]SPV
notes: aminopeptidase N (APN, CD13), human, residues 38-46; source: synthetic peptide (Fmoc SPPS, HPLC purified)

Where no end group is shown, it is not given here. [ ]: non-standard residue; d: D form. pT = C[C@@H](OP(=O)(O)O)[C@H](N)C(=O)O; pS = N[C@@H](COP(=O)(O)O)C(=O)O

Series [1] deals with T1, 14-3-3β/α, full length, N-terminally His6-tagged (human, UniProt P31946 1-246).
T1 construct: 14-3-3 beta/alpha, human, full length; also called His6-14-3-3β/α; source: E. coli BL21(DE3), purified (HisTrap, SEC); also in E. coli cell lysate (pulldown); not shown: His6, N-terminal, kept
T1 sequence (looked up): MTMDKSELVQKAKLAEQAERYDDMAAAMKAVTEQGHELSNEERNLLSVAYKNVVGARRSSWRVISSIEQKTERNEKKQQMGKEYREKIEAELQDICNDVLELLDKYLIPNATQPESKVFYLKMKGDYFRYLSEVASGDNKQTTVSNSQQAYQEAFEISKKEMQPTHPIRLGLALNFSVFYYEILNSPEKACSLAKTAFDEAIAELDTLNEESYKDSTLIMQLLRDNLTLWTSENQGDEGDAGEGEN
Kind of series: fluorescence polarisation; direct binding: dilution series of 14-3-3 protein added to FITC-labeled peptide (30 nM stock, 5 µl in 15 µl); 10 mM HEPES pH 7.4, 150 mM NaCl, 2 mM DTT, 0.01% Tween 20; 60 min at room temperature, read at 25 °C; four-parameter fit. The note with it: both partners purified. In general terms: Fluorescence polarisation rises when a labelled molecule tumbles more slowly, as on binding a larger partner.

In series [2] the target is B2. The series is described as above. Conditions: both partners purified.
Series [3] deals with the molecule itself. Kind of series: crystal structure; 14-3-3σ ΔC (12.5 g/l) mixed 1:2 with peptide 1; sitting drops, 100 mM HEPES pH 7.3, 0.19 M CaCl2, 5% glycerol, 28% PEG400, 4 °C; space group C222(1), 1.60 Å.
Series [4] concerns the target B5. Kind of series: ITC; 14-3-3η (500 µM; 250 µM for peptide 11) titrated into peptide (50 µM; 12.5 µM for peptide 11), 18 injections; 50 mM HEPES pH 7.4, 250 mM NaCl, 20 mM MgCl2; 25 °C. The note with it: both partners purified. On the technique in general: ITC needs no label: the signal is the heat of the interaction.
Series [5] has as its target T2, 14-3-3σ, full length, N-terminally His6-tagged (human, UniProt P31947 1-248).
T2 construct: 14-3-3 sigma (stratifin), human, full length; no tag cleavage is described for the full-length proteins; also called stratifin; SFN; source: E. coli BL21(DE3), purified (HisTrap, SEC)
T2 sequence (looked up): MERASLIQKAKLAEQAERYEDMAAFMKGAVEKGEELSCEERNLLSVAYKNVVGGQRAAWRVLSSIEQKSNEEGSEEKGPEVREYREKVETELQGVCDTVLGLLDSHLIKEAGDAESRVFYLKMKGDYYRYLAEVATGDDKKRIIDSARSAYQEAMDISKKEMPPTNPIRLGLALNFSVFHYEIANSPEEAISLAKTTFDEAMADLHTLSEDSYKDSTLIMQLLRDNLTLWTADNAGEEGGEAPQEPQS
Kind of series: fluorescence polarisation; competition: dilution series of acetylated peptide (starting concentration 4000 µM) added to a premixed complex of 14-3-3σ (3 µM) and FITC-labeled RAF1 tracer (30 nM); 10 mM HEPES pH 7.4, 150 mM NaCl, 2 mM DTT, 0.01% Tween 20; 25 °C. The note with it: both partners purified.

Series [6] concerns the target B2. Kind of series: ITC; 14-3-3η (500 µM; 250 µM for peptide 11) titrated into peptide (50 µM; 12.5 µM for peptide 11), 18 injections; 50 mM HEPES pH 7.4, 250 mM NaCl, 20 mM MgCl2; 25 °C. The note with it: both partners purified.
Series [7] has as its target B1. Kind of series: crystal structure; 14-3-3σ ΔC co-crystallised with peptide 11; sitting drops, 100 mM HEPES pH 7.7, 0.19 M CaCl2, 5% glycerol, 27% PEG400; space group C222(1), 1.20 Å; also solved in P1. Conditions: both partners purified.

Take PASATTLDQ (also: one phosphorylated Ser/Thr within Ser61–Thr64) [peptide 16, monophosphorylated APN 9-mer (noncanonical site of peptide 12)]: the Kd in series [1] and in series [2] was more than 40 µM each time.

With B1, the binding result in series [3] is recorded as “binds”.

As for B2, the stoichiometry N (as a rule, the number of molecules, sites or subunits per partner or assembly) in series [4] turned out to be 1.05.

B3: acetylated (label-free, unlabeled) peptide 1, APN 38–46 pSer43 (peptide)
peptide: Ac-NKNAN[pS]SPV
notes: aminopeptidase N (APN, CD13), human, residues 38-46; also called acetylated peptide 1; label-free peptide 1; source: synthetic peptide (Fmoc SPPS, HPLC purified)
For B3, the half-maximal inhibitory concentration (IC50) (commonly the concentration at which inhibition is half-maximal) in series [5] turned out to be 18.8 ± 1.5 µM.

Take TTNPASATT (also: one phosphorylated Ser/Thr within Ser61–Thr64) [peptide 14, monophosphorylated APN 9-mer (noncanonical site of peptide 10)]: the Kd in series [1] and in series [2] was more than 40 µM each time.

For NPASA[pT]TLD [peptide 15, monophosphorylated APN 9-mer pThr63 (site 2)], the dissociation constant Kd in series [1] and in series [2] was more than 40 µM in each case.

B4: acetylated (unlabeled) RAF1 peptide (peptide)
peptide: Ac-RQRST[pS]TPN
notes: source: synthetic peptide (Fmoc SPPS, HPLC purified)
B4 returned a half-maximal inhibitory concentration (IC50) in series [5] of 13.4 ± 0.7 µM.

As to B5, binding in series [6] was put at a Kd of 2.18 µM.

B6: peptide 11, APN 36–73 pSer43 pThr63, as used in ITC and co-crystallisation (peptide, UniProt P15144 36-73, looked up)
peptide: EKNKNAN[pS]SPVASTTPSASATTNPASA[pT]TLDQSKAWNR
notes: aminopeptidase N (APN, CD13), human, residues 36-73; also called bis-phosphorylated peptide 11; source: synthetic peptide (Fmoc SPPS, HPLC purified)
Regarding B6, the binding result in series [7] is recorded as “binds”.
